Assay: soluble on expression in E. coli; label from the status in PepcDB or PDB records

Sequence | soluble on expression in E. coli
MSLNNMIQVAIIGAGFIGPAHLEALRRLGDVEVVALCDSRLEAAQRKARALNIAHAYDSVEALLAHPGLQVVHNCTPNHLHAQINRQILAAGLHVFSEKPLCMTAGEARELVALAARAGVVHGVSFVYRQFAMVQQAAAMIRHGEVGRIFAAHGSYLQDWMLLETDYNWRVDSAQGGASRTVADIGSHWCDTVQFMTGRRIVEVMADLSIVWPTRKAPVNGKATFSAVHEAQAYETRPVDTEDFGSVLLRFDDGSKGSFMVSQVSAGRKNRLAVEINGSLCSLAWDQEVPQRLWIGHREQPDRLLSDDPSLLRPEIADSAHYPGGHIEGWPDAFKNMMGHFYQAVRAGKMPAAGARRFAAFDDGADVMYIIEAIVKSHQEQRWVSVEREGHHHHHH | soluble
MARIGIRYAEYSAMTVLRYLQAYPPHLQAQVRQMIDSDRLGEYLQRRYPDRHDVQSDKALYGYAQDLRQQYLRSAPNLDKVLFDSRLDLTHRALGLNTAVSRVQGGKLKAKKEIRIASLFKEAAPQFLRMIVVHELAHLRERDHNKAFYQLCQHMEPDYHQLEFDLRVYLTYRELPGNLLEHHHHHH | not soluble
MSLRIKNNEVAVYAIGGLHEIGKNMYCVQYQDEIIIMDCGIKFPEDDLLGINYVISDYSYLIKNRKKIKALVVSHGHEDHIGGIPFLLEKIPEIPVYATPFALSLIRGKLEEHGILKTTELHEEHEDTVLKFKKLSVSFFRTTHSIPDTLGIAVHTPLGAVVFTGDFKFDLTPVMDQPAPDFQKMAKLGNEGVLALLSDSTNAEVTQFTKSERFVAQSLHNIITGIHGRIIFATFASNLYRVSTAIQAAIDTGRKVAIFGRSMENGVDNGIDLGYLDIPKDLIVDAEEINKLPPDKVMILCTGSQGEPLAALSRIANGTHRQITLQPGDTVIFSSNPIPGNTLSVNHLINKLMEGGANVIHGRVNNVHTSGHGGQEELKMMVRLTKPKYMIPVHGEYRMQVIHTQLAQQAGVPAENTFVLSNGEVVCFGPNGARLAGRIPAGDVYVDTSGTADVGNVVVHDRQILSEEGLVVAVATVDYKHKRVLAGPDILSRGFVYMRESTELISQAQKHVYHVLRNEMSKSDKPKESEIKKAITENLSDFLYSKTERRPMILPIIIEKEGHHHHHH | soluble
MAYHADSADLETKEILTWEGFGIANRELAQQIVDSNYTPDIIVAVARGGLVPAGALSYSMGIKLSDAINVEFYTDVNETLPDPVLLEPLLDTNSIRGKKVLVVDDVADSGRTLDLVLKLLENHGAEVRSAVIYAKSRSIVAPNYIWKRTDEWIVFPWSAEPPVTKA | not soluble
MGSDKIHHHHHHMSDWTDRLPEAARAYIADRRVDEVECILSDIAGVARGKAMPAFKFGKQTSFFLPNSIFLQTITGEWADNPSGAFTEPDMILIPDYSTATAAPWTADITLQVIHDAVDQQGRPVPVSPRNVLRRVVELYNAEGWTPIVAPEMEFFLVARNIDPNMPVMPPMGRTGRRAAAKQAYSMSAVDEYGKVIDDIYDFAEAQGFEIDGILQEGGAGQVEINLAHGDPVALADQIFFFKRLIREAALRHDCFATFMAKPIEGEPGSAMHIHHSVVDSASKLNIFSDAKGGETEAFLHFIAGMQTHLPAAVALLAPYVNSYRRYVPDFAAPINLEWGRDNRTTGLRVPISGPEARRLENRLAGMDCNPYLGLAASLACGYLGLKERKMPQPECTGDAYMSETDLPYNLGDALDLLEEDAALRDVLGPEFCGVYDSVKRNEYKEFLQVISPWEREHLLLNV | not soluble
MSAIKVFILSDSIGETAHNVALAAAAQFSDYDIRYQRFPFVRTDSLLQTVLSQALKEHAAIFHTFVDRRLSQIVNQFCEAHELPYYDVITPALDTFSQITHVQPSNHPGTVHALNTNYFDRINAIEFAVTYDDGKNPSGFLEADVVLLGVSRTSKTPLSLYLANRNLKVANLPLVPQAQIPDEIWKVDPKKIFGLTNDPEKLNDIRRQRMVQYGLNPDTMYSNTDKIKAELEYADKIFKKIGCLVINVANKSIEETATLITESLNTDDTNNGLEHHHHHH | soluble
MTVEASRPARSRQAVIFCYNAGYLPFALHAAERIDRLTPGRAFDICICHGEEPILVPDSLSRLDVRLIRIDTTGVFTGLRLDPGRTHDVYLRLALPQALAADYDRILYLDADIFVQGGDFTALLGLDLGNHPLGAVRDNIQWRTPERRAEQFRRLGIPAAPYFNAGLLLMDVARYNEMNLLDRCVELGRREASRMIRHDQNLYNAVLRGDWAELSPMWNWQYSWSARLFEAMRYPHIVHFIGTLKPWADRKGHYSPRFAQSYDRFIADHFPDRPRNPVSGGLSPDSRMMRRMLVKHFLSSSKLARYLDRFPSDLTVIRLEHHHHHH | not soluble
MRKINTNKNDSQIYSRGFIMRNIRPSQLGQYIRRALRLHFIPVVLVAAPSVMANTNQETEQLETLVVTASALKVETPAQETPKALSIVTQEEIVARAPQKLDEALRYTSGVTAQPYGADNDTDWLKVRGFDAATYQDGSRLFRDGYYTWLIEPYALERIEVLKGPASILYGEAPPGGVVNAVQKKPTDIPQGEVGLQVGNDALRTLTLDISDYANQDGSVRYRLVALMKENDGQLNGTQTSRNYLAPSLSIDISEQTRLTLLASFLEDSGVPTNPFFPAAGTLIDSNFGHIDPSTNLGQPDYDKYERRQVSLGYLFEHDLNDVWALSQTFNYGDNDLYLRSSYAFSNDDPSKDTLTQGIVFRDGSTESLSLDNKAVAKWDSARVENTLLMGLELQRHQTQGVELDNYSFGTINPFNPNYGNFTPIDESSAADRTITKEQASLYAQYQIKLDQQWIGLIGGRMDWVDTENESQKNMQRKSRSDAEFSFNAGLMYLASNGVSPYLSYSQSFDVLSTIDSAKGELYKPLKGEQTEVGVKYQPEFYDGYINLAWFDITQQNALVTNPTTFVATQTGEMTAQGIEVESVGYVTDSLKLTASYTFTDAKTDETGGKGTQQAGLIPKHQASAWLDYDAAQLGLQGWTFGSGVRYIGESKDNPRSSDRTVPSVTLVDLMAGYEITENWQVQLNINNLFDREFVSGCDYWCYYGQSRSAVLSANYRW | not soluble
MTVSLLDSSTRYHAVTALNGNVLFSGARRPMPTVMLLHTPPPEFIRSQIQQMVVDYVTDISMVAIAPGNPLYNLYQYGVGYEVHLYLNAMNGSQSLTVELIVALDDEDPETVLGFLLYLPVQDDPQACAVAYMAVLESHRCQGIARLMLDRMVSRYAHAELYCTVAKVPYFQAMGFQVLGARGPQVIMNTRDHGTDGLLAVMDIAPIYSSVEVRQIHAYLLKQHGNTAMLDAEKQRDHHLDRMTREARAFAEQHLENGDSVHGVSATVRLH | not soluble
MKLTIIRLQHFSDQDRIDLGKIWPSQDLSTLTLDENHRLYAAHFNERLLGAVRVTLRGVEGELSDLCVREVTRRRGVGQYLVEETLRDNPAINSWRVADHGVEDRGVMAAFMQALGFSAQQ | not soluble
MYTQTLYELSQEAERLLQLSRQQLQLLEKMPLSVPGDDAPQLALPWSQPNIAERHAMLNNELRKISRLEMVLAIVGTMKAGKSTTINAIVGTEVLPNRNRPMTALPTLIRHTPGQKEPVLHFSHVAPIDCLIQKLQQRLRDCDIKHLTDVLEIDKDMRALMQRIENGVAFEKYYLGAQPIFHCLKSLNDLVRLAKALDVDFPFSAYAAIEHIPVIEVEFVHLAGLESYPGQLTLLDTPGPNEAGQPHLQKMLNQQLARASAVLAVLDYTQLKSISDEEVREAILAVGQSVPLYVLVNKFDQQDRNSDDADQVRALISGTLMKGCITPQQIFPVSSMWGYLANRARHELANNGKLPPPEQQRWVEDFAHAALGRRWRHADLADLEHIRHAADQLWEDSLFAQPIQMLLHAAYANASLYALRSAAHKLLNYAQQAREYLDFRAHGLNVACEQLRQNIHQIEESLQLLQLNQAQVSGEIKHEIELALTSANHFLRQQQDALKVQLAALFQDDSEPLSEIRTRCETLLQTAQNTISRDFTLRFAELESTLCRVLTDVIRPIEQQVKMELSESGFRPGFHFPVFHGVVPHFNTRQLFSEVISRQEATDEQSTRLGVVRETFSRWLNQPDWGRGNEKSPTETVDYSVLQRALSAEVDLYCQQMAKVLAEQVDESVTAGMNTFFAEFASCLTELQTRLRESLALRQQNESVVRLMQQQLQQTVMTHGWIYTDAQLLRDDIQTLFTAERY | not soluble
MEEVVRFECRDSNLEIYVVQPGERLSIFGSCSFLCLAGNASINDYNLPAVSCESSNFMKISAPQRMDVPAILQVFKSGPSYKHARLKFRLKEVAPKNYEKIMEMIGTTEPSVFIFSKILDFAEETVSGVVSNFLIHSSIQKQIILPPHFFISRDDFIIYPQQQEAQLKSQMNRLNKLRNDGQRTTILPIGHKGAGKSNLMRSLVNRCLSNGYEHVYVLDCDIGQSEFTPCGCLSLTKVTSPILGKPHGHQRASFENSFFYGDITVRDINLYMDIFERLFNKFKVISEPGSVCIINSMGWVTDEGAEILDGITRVTDPELFVEIFRDQTEARYQFLNRAEHNIVEIFANNSIGVIGLPPQKRLPAALIRELTIVGYFSSRLPRPSLASFPKVAPYKLRFENVTICVPVDLLVEDSHVFSSINTQIMALCINNTDLKPRKLYGKDDLPSICVIDGNSPALQCIGFGIIRGVSVEERIIFVVTPVDLLKLEEPPVLVRGMRIQTPTMFYTADPYNRCPYVLNDLEQGNSDNTLDGLYQPSVNTTQFKRSRRF | not soluble
GMAEQMRRVARLFGDWPETIIWTCLEGTMGDIYVDDSQSPQSALALYGRQSFFGFLAGQPHRDLLKICEGKNIILVPQNQAWSDLIEEVYGDGVRFFTRYATKKDTEFDLGHLQKLVDDLPESFDMKLIDRNLYETCLVEEWSRDLVGNYIDVEQFLDLGLGCVILHKGQVVSGASSYASYSAGIEIEVDTREDYRGLGLAKACAAQLILACLDRGLYPSWDAHTLTSLKLAEKLGYELDKAYQAYEWR | soluble
MGSDKIHHHHHHMFAHCDVNAFYASCQTAFRPDLKGRPVVVLSNNDGCVIARSAEAKPFVKMGEPYFKQKAAFLRHGVVAFSSNYELYADMSSRVMATLEELTPRCEIYSIDEAFCDVSGVRHCRDLTDFGREIRATVLQRTHLTLGVGIAQTKTLAKLANHAAKQWPRQTGGVVDLSCPQRQRKLMALLPVSEVWGIGRRIGKKLEAMGIGTVLQLAESDIRFIRKHFTVVLERTVRELRGEPCLALEEFAPAKQEIICSRSFGDRITAYEDMRQAICSYAARAAEKLRGEHQYCRFVSAFVKTSPFALNEPYYGNSASLKLLTPTQDSRDIIAAATSCLDAIWKAGHRYQKAGVMLGDFYSQGVAQLNLFDELAPRHNSARLMQVLDQLNAKNGRGALYFAGQGIQQQWQMKREMLSPRYTTRYGDLLRVR | not soluble
METLGVQTNSELREELNRLKEENARLKKELNQHQVIVNNTLDAIFICDNEMRIVQANEATERMLQVDSEDLKKRSVLDFLFSIPKDELNLSVKKFFKKGFLWKEVPIRLDCGATKYIEFLAKRGIGEDFFFVVMRDIS | not soluble
MSLSDKKVLCVEDEEVIRSNLMETLELFFDKVSGAKDGFEALEQAMCDTYDVFIFDISIPHLDGLEVLKRVRQFNKKTPIVILSAHKEQEYLWRAVELKITRYLTKPYDKNSLIKALEEVALELMDYHPLFQISPLHSYDFCRKAMTCKGEMVYLSKKREPTEGHHHHHH | not soluble
MGQCLGTLCTVDSATDNISSVYQLAGPVAVKESPRIAERDPKVKISVNPEEENVERPCVLYSKSNEIIKKPDIFEEIYKRTPITLSNNGRIDVAELPAGQRVIEVENNEVRDKYKKTLYEIRRKCRELQNLGAEDEETGEIIDTLLILYKDFFLLTTWKIDKYAQLRKNAAVQAYNSLPKLRADPAEFRCHVEFQYRVANELWEHFKETYIHKYEACNWAERAKVKEWDLLDSQVQTPNVEWDYLGAHGYI | not soluble
